Reference: publication PMC3500560

Target: His6-tagged SYD-2LH1 (C. elegans) (UniProt Q21049)
Experiment: pull-down

His6-tagged SYD-2LH1 (C. elegans), sequence (Q21049 91-217): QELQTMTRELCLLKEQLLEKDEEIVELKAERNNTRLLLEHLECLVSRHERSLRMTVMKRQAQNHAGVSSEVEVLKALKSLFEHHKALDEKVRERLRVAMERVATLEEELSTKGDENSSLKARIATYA

## GST-LH1Δ (Δ179–198) (from UniProt Q21049 1-1139) (domain or fragment)
  binding relative to SYD-2LH1 (percent): < 10%
